According to PMC4401514:

Target: activated Cry1Ac toxin of Bacillus thuringiensis subsp. kurstaki HD73 (Bacillus thuringiensis subsp. kurstaki HD73) (UniProt P05068)
Experiment: SPR; BIAcore 3000; Cry1Ac immobilised on CM5 chip by amine coupling; HaALP1f injected at 31.25-500 nM; HBS (10 mM HEPES, 150 mM NaCl, 0.005% Tween20, pH 7.4), 40 ul/min; 1:1 Langmuir model; apparent rate constants

HaALP1f, his-tagged fragment of alkaline phosphatase HaALP1 from Helicoverpa armigera (from UniProt B4Z1D6 192-451) (domain or fragment)
Kd: 7.58 nM | koff: 0.00248 s⁻¹ | kon: 327000 M⁻¹ s⁻¹
